Experimental data as given in US20230357364A1 (INTERNATIONAL AIDS VACCINE INITIATIVE, published 2023).
Substitutions are numbered along the chain they refer to.

B1: L6.dP04E05 (antibody, V domains shown)
VH: EVQLVESGGGLVQPGRSLRLSCAASGFTFDDYAMHWVRQAPGKGLEWVSGISWNSDNIGYADSVKGRFTVSRDNAKNSLYLQMNSLRAEDTALYYCTKDIHRKNDYYDILTGYYRVRYYYYAMDVWGQGTTVTVSS
VL: QSVLTQPPSASGSPGQSVTISCTGTSSDAGGYNYVSWYQQHPGKAPKLMIYEVIKRPSGVPDRFSGSKSGNTASLTVSGLQAEDEADYYCSSFAGTSVVFGGGTKLTVL
notes: human IgG1
B2: L6.P4A3.1 (antibody, V domains shown)
VH: QVQLVQSGAEVKKPGSSVKVSCKASGGIFSSSAISWVRQAPGQGLEWMGGIIPILDISNYAQKFQGRVTITADKSTSTAFMELSSLRSEDTAVYYCALTNQWDLLVYWGQGTLVTVSS
VL: EIVLTQSPGTLSLSPGERATLSCRASQRVSSSYLAWYQQKPGQAPRLLIYGAESRATGIPDRFSGSGSGTDFTLTISRLEPEDFAVYYCQHYGSSLWTFGQGTKLEIK
B3: L6.dP03H10 (antibody, V domains shown)
VH: QVQLVQSGAEVKKPGSSVKVSCKASGGTFSIYAITWVRQAPGQGLEWMGGIIPIIGTANYAQKFQGRVTITADKSTSTAYMELSSLRSEDTAVYYCARDFRYCSSTRCYFWFDPWGQGTLVTVSS
VL: DIQMTQSPSSLSASVGDRVTITCRASQNISSYLNWYQQEAGKAPKLLIYAASSLQSGVPSRFSGSGSGTDFTLTISSLQPEDFATYYCQQSYSTPRTFGQGTKVDIK
B4: L6.dP02E05 (antibody, V domains shown)
VH: QVQLVQSGSELKKPGASVKVSCKASGYTFATYALNWVRQAPGQGLEWMGWVNTNTGSPTYAQGFTGRFVFSFDTSVSTAYLQIRTLKAEDTAVYYCAVYYYDSGSPGWFDPWGQGTLVTVSS
VL: B3 VL with M4L, N28T, I29A, E39K, A40P, K45N, G68V, R96P
notes: human IgG1
B5: L6.dP04A03 (antibody, V domains shown)
VH: B2 VH with I28T, S58T, T99R
VL: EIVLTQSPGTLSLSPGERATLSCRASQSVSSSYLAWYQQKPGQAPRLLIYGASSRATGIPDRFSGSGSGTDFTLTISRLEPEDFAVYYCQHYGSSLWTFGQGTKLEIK

biological target: T1, SARS-CoV-2 spike D614G (pseudovirus) (SARS-CoV-2, UniProt P0DTC2 14-1273); assay: cell-based or functional assay

| Binder | PSV in HeLa-ACE2 cells IC50 [ng/mL] |
| --- | --- |
| B1 | 8 |
| B2 | 13 |

biological target: T1, SARS-CoV-2 spike D614G (pseudovirus); assay: cell-based or functional assay; remark: another data set of the same source

| Binder | neutralization IC50 [ng/mL] |
| --- | --- |
| B1 | 0.52 |
| B3 | 1.9 |
| B4 | 3.9 |
| B5 | 24 |

biological target: SARS-CoV-2 spike G476S (pseudovirus) (SARS-CoV-2, UniProt P0DTC2 14-1273); assay: cell-based or functional assay

| Binder | neutralization IC50 [ng/mL] |
| --- | --- |
| B1 | 0.16 |
| B3 | 0.08 |
| B5 | 84 |

biological target: SARS-CoV-2 spike V483A (pseudovirus) (SARS-CoV-2, UniProt P0DTC2 14-1273); assay: cell-based or functional assay

| Binder | neutralization IC50 [ng/mL] |
| --- | --- |
| B1 | 0.55 |
| B3 | 1.9 |
| B4 | 3.9 |
| B5 | 160 |

biological target: SARS-CoV-2 spike V367F (pseudovirus) (SARS-CoV-2, UniProt P0DTC2 14-1273); assay: cell-based or functional assay

| Binder | neutralization IC50 [ng/mL] |
| --- | --- |
| B1 | 0.07 |
| B3 | 0.25 |
| B4 | 0.04 |
